Measurements published in patent US20160193357A1.

Columns and labels:
[1] = biological target: human Trop-2 on cells (human) (UniProt P09758); test: cell binding on NCI-N87, anti-mouse-HRP, luminescence
[2] = biological target: recombinant human neonatal receptor (FcRn) (human) (UniProt P55899); test: SPR (BIACORE), FcRn on low-density chip, three runs at 400 to 25 nM
[3] = biological target: rhTrop-2/TACSTD2 (Sino Biological, Inc.) (human) (UniProt P09758); test: SPR (BIACORE), recombinant human Trop-2 on low-density CM5 chip, 1:1 model, three runs
Chain of rhTrop-2/TACSTD2 (Sino Biological, Inc.) (human) (P09758 27-274 limits assumed): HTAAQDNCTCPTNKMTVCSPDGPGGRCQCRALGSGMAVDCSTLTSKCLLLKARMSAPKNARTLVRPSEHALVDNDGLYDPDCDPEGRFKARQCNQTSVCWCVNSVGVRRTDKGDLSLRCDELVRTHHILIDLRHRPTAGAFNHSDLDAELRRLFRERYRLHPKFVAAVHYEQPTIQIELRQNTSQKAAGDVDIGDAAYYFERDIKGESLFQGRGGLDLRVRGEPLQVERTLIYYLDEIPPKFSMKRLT

[4] = biological target: rhTrop-2/TACSTD2 (Sino Biological, Inc.) (human) (UniProt P09758); test: SPR (BIACORE), Trop-2 on chip
[5] = biological target: recombinant human neonatal receptor (FcRn) (human) (UniProt P55899); test: SPR (BIACORE), FcRn on chip
[6] = biological target: human Trop-2 on cells (human) (UniProt P09758); test: cell-based or functional assay
[7] = biological target: human Trop-2 on cells (human) (UniProt P09758); test: cell binding assay; cell line not stated
[8] = biological target: Recombinant human Trop-2 with a His-tag (Sino Biological, Cat#10428-H09H) (human) (UniProt P09758); test: ELISA on His-tagged recombinant human Trop-2 captured on Ni-NTA strips
Chain of Recombinant human Trop-2 with a His-tag (Sino Biological, Cat#10428-H09H) (human) (P09758 27-274 limits assumed): as above

Chain of recombinant human neonatal receptor (FcRn) (human) (P55899 24-297 limits assumed, chain 1 of 2): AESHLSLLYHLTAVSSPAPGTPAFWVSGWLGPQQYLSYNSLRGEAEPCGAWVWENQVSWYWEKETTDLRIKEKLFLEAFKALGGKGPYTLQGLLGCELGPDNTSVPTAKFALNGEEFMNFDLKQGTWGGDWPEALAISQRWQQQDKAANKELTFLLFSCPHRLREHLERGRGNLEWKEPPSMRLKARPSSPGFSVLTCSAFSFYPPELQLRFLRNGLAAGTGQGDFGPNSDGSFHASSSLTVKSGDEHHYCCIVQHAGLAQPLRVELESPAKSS
Chain of recombinant human neonatal receptor (FcRn) (human) (P61769 21-119 limits assumed, chain 2 of 2, further chain): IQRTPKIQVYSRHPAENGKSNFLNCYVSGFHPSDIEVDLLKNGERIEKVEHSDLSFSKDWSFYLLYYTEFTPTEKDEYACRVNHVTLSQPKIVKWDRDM
Chain of human Trop-2 on cells (human) (P09758 27-323): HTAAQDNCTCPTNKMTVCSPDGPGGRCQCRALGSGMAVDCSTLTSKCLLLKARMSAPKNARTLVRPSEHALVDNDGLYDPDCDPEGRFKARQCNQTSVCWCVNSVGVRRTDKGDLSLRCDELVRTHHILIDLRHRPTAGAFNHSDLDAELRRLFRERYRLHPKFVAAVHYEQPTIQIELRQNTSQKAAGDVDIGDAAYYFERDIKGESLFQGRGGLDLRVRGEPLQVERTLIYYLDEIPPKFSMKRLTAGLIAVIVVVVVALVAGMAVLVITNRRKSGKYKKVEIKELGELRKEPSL

For “162-46.2 murine anti-Trop-2 monoclonal antibody”, the BMax (relative luminescent units) [1] was 8470, the Kd [1] was 0.52 nM and the reduction of maximum binding (Bmax) compared to RS7 [1] was 25%.
With “MAB650 murine anti-Trop-2 monoclonal antibody (R&D Systems)” the BMax (relative luminescent units) [1] was 6020, the Kd [1] was 0.49 nM and the reduction of maximum binding (Bmax) compared to RS7 [1] was 50%.
In the case of “Sacituzumab govitecan (IMMU-132, also known as hRS7-CL2A-SN-38) (antibody)”, the Kd [2] is reported as 192 nM, the Kd [3] is reported as 0.26 nM and the fold improvement in KD compared to naked hRS7 [4] is reported as 2 fold. For the same substance, the fold lower average binding level than hRS7 [5] was 2 fold, the ADCC, specific lysis of MDA-MB-468 by PBMCs (E:T 50:1, 33.3 nM) [6] was 8.6% and the Median fluorescence intensity of phospho-H2AX staining (dsDNA breaks), HCC1806 (Trop-2+), after 30 min at 4° C., wash and overnight culture [6] was 546 MFI. For the same substance, the γH2AX induction in BxPC-3, Mean Fluorescence Intensity [6] was 5350 MFI, the γH2AX induction in BxPC-3, Percent Positive [6] was 69% and the Kd [7] was 1.2 nM.
With “hA20 anti-CD20-SN38 conjugate (antibody)” the γH2AX induction in BxPC-3, Mean Fluorescence Intensity [6] was 2250 MFI and the γH2AX induction in BxPC-3, Percent Positive [6] was 12.7%.
In the case of “humanized RS7 (hRS7) anti-Trop-2 antibody”, the Kd [2] is reported as 92.4 nM, the Kd [3] is reported as 0.51 nM and the ADCC, specific lysis of BxPC-3 by PBMCs (E:T 100:1, 33.3 nM) [6] is reported as 8.5%. The ADCC, specific lysis of MDA-MB-468 by PBMCs (E:T 50:1, 33.3 nM) [6] was 29.8% and the Kd [8] was 0.3 nM.
